What was measured:
HEK293T cells = test: Annexin V apoptosis assay in transfected HEK293T cells +/- 4OHT; type: cell-based, Human; conditions: for cell death observed: 1 uM 4OHT or solvent control; for inducibility of apoptosis with 4OHT: 200 nM or 1 uM 4OHT, ~18-24 hours
Procedure: (§1) Human Embryonic Kidney (HEK) 293T cells were transfected with 1 ug per 1E6 cells using Lipofectamine 3000 and incubated in DMEM+10% FBS+1% Pen/Strep media for 4 hours before adding 1 uM 4-hydroxytamoxifen (+4OHT) or solvent control (No 4OHT). The cells were incubated with 4OHT for 18-24 hours. The cells were then stained with Annexin V to detect apoptotic cells, as well as DAPI to detect dead cells.
HEK293T cells were transfected with varying amounts of DNA of a vector control (pLenti), with construct A tBID (lacking a LBD, C150, see FIG. 5B), or with C-ESR1 or D-ESR1 (FIG. 10, bottom), and assayed for apoptosis using either 200 nM OHT or 1 μM 4OHT.
To determine the effect of amount of DNA as well as 4OHT concentration on apoptosis induction, we titrated both the amount of DNA (2, 3, or 6 ug DNA per 1E6 cells) and the concentration of 4OHT. 500,000 cells HEK293T cells were plated in a 24-well plate. ˜2 hours after plating, appropriate amounts of DNA were transfected using Lipofectamine 3000 and incubated for 4 hours. Either ethanol solvent control, 200 nM 4OHT, or 1 uM 4OHT was added to the transfected cells then incubated for ˜18-24 hours. The cells were then stained as in Example 4. Intriguingly, C-ESR1 was not inducible in HEK293 Ts, unlike in Jurkat cells (Example 6, FIGS. 7 and 11A-B).

Jurkat cells = test: Annexin V / PI apoptosis assay in transfected Jurkat cells +/- 4OHT; type: cell-based; conditions: for background cell death / induction of apoptosis with 4OHT: 2 ug DNA per 1E6 cells, 20 hours; for background cell death: ethanol solvent control; for inducible apoptosis with 4OHT / background apoptosis / killing: 1 ug DNA per 1E6 cells; for inducible apoptosis with 4OHT: 1 uM 4OHT vs solvent control, 18-24 hrs; for background apoptosis / killing: solvent control; for induction of apoptosis with 4OHT: 200 nM or 1 uM 4OHT
Procedure: as §1, with “Jurkat immortalized T lymphocytes” for “Human Embryonic Kidney (HEK) 293T cells”, “Neon electroporation” for “Lipofectamine 3000”, “RPMI+20% FBS+0.1%” for “DMEM+10% FBS+1%”, “propidium iodide (PI)” for “DAPI”
Jurkat cells were transfected with 1 ug of DNA per 1E6 cells using Neon electroporation, treated +/−4OHT for 18-24 hrs, and stained with Annexin V to detect apoptotic cells, as well as PI to detect dead cells (FIG. 5A).
One possibility is that the BID α3 and α6 helices are necessary and sufficient for tBID function. Therefore, we made various truncations that included α3 and α6, as well as various other helices. Jurkat cells were transfected with 1 ug DNA per 1E6 cells, treated with 4OHT or solvent control, then stained as in Example 4. […] One exception was the ESR-D tBID fusion construct, which has the Bid α3, α6 and α7 helices (FIG. 6). 0.3 uM staurosporine (STP) and DMSO solvent control were included as controls.
Jurkat cells were transfected with 1 ug DNA per 1E6 cells, treated with 4OHT or solvent control, then stained as in Example 4. The fold change in apoptosis upon 4OHT addition was determined by dividing the percent Annexin V positive cells treated with 4OHT by the percent Annexin V positive cells treated with a solvent control (FIG. 8). The fold change was calculated from one experiment. As electroporation of empty vector always results in some background death of cells, percent Annexin V positive cells of pLenti was used as the background and subtracted from total percentage to obtain “background subtracted” fold change values.
To determine the effect of 4OHT concentration on apoptosis induction in Jurkat cells, Jurkat cells were transfected with 2 ug DNA per 1E6 cells. 4 hours post-transfection, either ethanol solvent control, 200 nM 4OHT, or 1 uM 4OHT was added to the transfected cells then incubated for 20 hours. The cells were then stained with Annexin V and PI to measure cell death.

primary T cells [1] = test: Caspase-3/7 Green time course of 4OHT-mediated death in transduced primary T cells; type: cell-based
Procedure: To characterize tamoxifen-induced killing activity in transfected Jurkat cells over time, Jurkat cells were transfected with 1 ug DNA per 1 E6 cells as described previously above. 24 hours post-transfection, Jurkat cells were harvested and resuspended in complete RPMI media containing 10% FBS, 1% Pen/Strep, and 5 uM Caspase-3/7 Green Reagent (Essen Bioscience 4440). The resuspended cells were plated onto poly-L-ornithine treated 384-well plates and left at room temperature for 30 minutes. Then, RPMI+10% FBS+1% Pen/Strep+5 uM Caspase-3/7 Green Reagent containing appropriate 2×4OHT or EtOH was added to the cells. Induction of apoptosis was measured using the Caspase-3/7 dye, which couples caspase-3/7 recognition motif with a DNA intercalating dye. Cells turn green if and only if caspase-3/7-mediated apoptosis occurs. The cells were imaged using the IncuCyte S3 Live-Cell Analysis System.
Primary T cells transduced with D-ESR1 were prepared similarly to Jurkat cells in Example 9 and 4OHT-mediated death was measured using the Caspase-3/7 Green Reagent as described in Example 9.

primary T cells [2] = test: Annexin V / PI apoptosis assay in transduced primary T cells +/- 4OHT; type: cell-based; conditions: lentiviral transduction, 20 hours
Procedure: To characterize tBID-ESR1 safety switch function in primary T cells, D504C cells were transduced with lentiviral constructs containing either C-ESR1 or D-ESR1. The cells were maintained and expanded in media containing 300 IU/mL IL-2. To induce apoptosis, 1E6 cells were resuspended in 1 mL of LymphoONE media containing 1% human serum and 1 uM 4OHT. As a solvent control, same volume of ethanol was added to the cells. 20 hours after 4OHT addition, cells were stained with Annexin V and PI to measure cell death as described in Example 9.

[3] = HEK293T, 1 ug per 1E6 cells, 18-24 hours
[4] = HEK293T, 2, 3, or 6 ug DNA per 1E6 cells

| Molecule | cell death observed (HEK293T cells; [3]) | background cell death (Jurkat cells) | inducibility of apoptosis with 4OHT (HEK293T cells; [4]) | inducible apoptosis with 4OHT (Jurkat cells) | background apoptosis / killing (Jurkat cells) | induction of apoptosis with 4OHT (Jurkat cells) | further results |
| --- | --- | --- | --- | --- | --- | --- | --- |
| full length Bid: full length Bid expressed alone in HEK293T cells (protein, UniProt P55957 1-195, looked up, full-length, full length Bid expressed alone in HEK293T cells) MDCEVNNGSSLRDECITNLLVFGFLQSCSDNSFRRELDALGHELPVLAPQWEGYDELQTDGNRSSHSRLGRIEADSESQEDIIRNIARHLAQVGDSMDRSIPPGLVNGLALQLRNTSRSEEDRNRDLATALEQLLQAYPRDMEKEKTMLVLALLLAKKVASHTPSLLRDVFHTTVNFINQNLRTYVRSLARNGMD | negligible death | – | – | – | – | – | – |
| C150: truncated BID (tBID), a potent apoptosis inducer; construct A tBID lacking a LBD (protein, UniProt P55957 61-195, looked up, BH3-interacting domain death agonist p15) BH3-interacting domain death …: GNRSSHSRLGRIEADSESQEDIIRNIARHLAQVGDSMDRSIPPGLVNGLALQLRNTSRSEEDRNRDLATALEQLLQAYPRDMEKEKTMLVLALLLAKKVASHTPSLLRDVFHTTVNFINQNLRTYVRSLARNGMD | significant death | – | – | – | – | – | Annexin V+ cells (HEK293T cells; HEK293T, 1 ug per 1E6 cells, regardless of the presence of tamoxifen, 18-24 hours): 60-70% |
| ESR1-C: fusion protein SEQ ID NO: 6; ESR1 LBD fused to N-terminus of tBID truncation C (protein, tBID fusion protein C3443 (ESR1-C)) MKKNSLALSLTADQMVSALLDAEPPILYSEYDPTRPFSEASMMGLLTNLADRELVHMINWAKRVPGFVDLTLHDQVHLLECAWLEILMIGLVWRSMEHPGKLLFAPNLLLDRNQGKCVEGMVEIFDMLLATSSRFRMMNLQGEEFVCLKSIILLNSGVYTFLSSTLKSLEEKDHIHRVLDKITDTLIHLMAKAGLTLQQQHQRLAQLLLILSHIRHMSNKGMEHLYSMKCKNVVPLYDLLLEMLDAHRLHAPTGSSQEDIIRNIARHLAQVGDSMDRSIPPGLVNGLALQLRNTSRSEEDRNRDLATALEQLLQAYPRDMEKEKTMLVLALLLAKKVASHTP | – | relatively high background levels of cell death | – | – | – | – | – |
| D-ESR1: fusion protein SEQ ID NO: 5; tBID helices α3, α6 and α7 fused to the N-terminus of ESR1 LBD (protein, tBID fusion protein C3454 (D-ESR1), tBID helices α3, α6 and α7 fused to the N-terminus of ESR1 LBD) SQEDIIRNIARHLAQVGDSMDRSIPPGEKTMLVLALLLAKKVASHTPSLLRDVFHTTVNFINQNLGSKKNSLALSLTADQMVSALLDAEPPILYSEYDPTRPFSEASMMGLLTNLADRELVHMINWAKRVPGFVDLTLHDQVHLLECAWLEILMIGLVWRSMEHPGKLLFAPNLLLDRNQGKCVEGMVEIFDMLLATSSRFRMMNLQGEEFVCLKSIILLNSGVYTFLSSTLKSLEEKDHIHRVLDKITDTLIHLMAKAGLTLQQQHQRLAQLLLILSHIRHMSNKGMEHLYSMKCKNVVPLYDLLLEMLDAHRLHAPT | – | – | increases the window of induction | showed inducible apoptosis | low background apoptosis | consistently induced apoptosis | background apoptosis, Caspase-3/7 Green Reagent (primary T cells [1]): low background; inducible apoptosis, Caspase-3/7 Green Reagent (primary T cells [1]; 4OHT): inducible apoptosis is seen; inducibility of apoptosis with 4OHT (HEK293T cells; HEK293T, 2, 3, or 6 ug DNA per 1E6 cells, listed as C3454): retained activity across cell types; background apoptosis (HEK293T cells; HEK293T, 2, 3, or 6 ug DNA per 1E6 cells, ethanol solvent control): does not increase background; inducible killing with 4OHT, Annexin V and PI (primary T cells [2]; 1 uM 4OHT): greatest inducible killing; background cell death, Annexin V and PI (primary T cells [2]; ethanol solvent control): low background |
| C-ESR1: fusion protein SEQ ID NO: 7; tBID helices α3, α4, α5 and α6 fused to the N-terminus of ESR1 LBD (protein, tBID fusion protein C3452 (C-ESR1), tBID helices α3, α4, α5 and α6 fused to the N-terminus of ESR1 LBD) MSQEDIIRNIARHLAQVGDSMDRSIPPGLVNGLALQLRNTSRSEEDRNRDLATALEQLLQAYPRDMEKEKTMLVLALLLAKKVASHTPGSKKNSLALSLTADQMVSALLDAEPPILYSEYDPTRPFSEASMMGLLTNLADRELVHMINWAKRVPGFVDLTLHDQVHLLECAWLEILMIGLVWRSMEHPGKLLFAPNLLLDRNQGKCVEGMVEIFDMLLATSSRFRMMNLQGEEFVCLKSIILLNSGVYTFLSSTLKSLEEKDHIHRVLDKITDTLIHLMAKAGLTLQQQHQRLAQLLLILSHIRHMSNKGMEHLYSMKCKNVVPLYDLLLEMLDAHRLHAPT | – | – | not inducible | showed inducible apoptosis | – | – | – |
| ESR1-D: fusion protein SEQ ID NO: 4; ESR1 LBD fused to N-terminus of tBID with Bid α3, α6 and α7 helices (protein, tBID fusion protein C3445 (ESR1-D), ESR1 LBD fused to N-terminus of tBID with Bid α3, α6 and α7 helices) MKKNSLALSLTADQMVSALLDAEPPILYSEYDPTRPFSEASMMGLLTNLADRELVHMINWAKRVPGFVDLTLHDQVHLLECAWLEILMIGLVWRSMEHPGKLLFAPNLLLDRNQGKCVEGMVEIFDMLLATSSRFRMMNLQGEEFVCLKSIILLNSGVYTFLSSTLKSLEEKDHIHRVLDKITDTLIHLMAKAGLTLQQQHQRLAQLLLILSHIRHMSNKGMEHLYSMKCKNVVPLYDLLLEMLDAHRLHAPTGSSQEDIIRNIARHLAQVGDSMDRSIPPGEKTMLVLALLLAKKVASHTPSLLRDVFHTTVNFINQNL | – | relatively high background levels of cell death | – | high inducibility | low background killing | robustly induced at either 200 nM or 1 uM 4OHT | – |
